In the supplement of paper PMC12764529:
± gives the half width of the 95% confidence interval.

Key:
[1] = folding stability dG unfold from chymotrypsin proteolysis; higher = more stable
Procedure, shortened: (§1)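 Unfolding free energy was derived, per protease or combined, by relating Bayesian-fitted K50 values from sequencing counts to a sequence-predicted unfolded-state K50 and a shared folded-state K50. The underlying digests exposed cysteine-free mini-proteins under 80 residues, in a PA-tagged cDNA display construct, to trypsin and chymotrypsin at 11 threefold-diluted concentrations and to a no-protease condition. A filter kept only designs with AlphaFold2 dimer inter-PAE above 15.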

[2] = folding stability dG unfold (combined trypsin and chymotrypsin); higher = more stable
Procedure, shortened: as §1

[3] = folding stability dG unfold from trypsin proteolysis; higher = more stable
Procedure, shortened: as §1

Row | Sequence | folding stability dG unfold [1] | folding stability dG unfold [2] | folding stability dG unfold [3]
1 | SAGGSAGGSAGSMSVSVTKLPNGDYVVTTTTSETSTSTTGSTPVTTTTTTTTVTTLPSSSSAGGSAGGSAGG [r17_432_JUSTAS] | 0.775 ± 0.023 kcal/mol | 1.57 ± 0.046 kcal/mol | 2.21 ± 0.048 kcal/mol
2 | SAGGSAGGSAGSMSVTLSTTVEVTVEPLPDYTIVTVTTTTTFPDGSTTTTVTTTPVPPDLGSAGGSAGGSAG [r3_330_JUSTAS] | 1.8 ± 0.15 kcal/mol | 1.68 ± 0.22 kcal/mol | 0.957 ± 0.24 kcal/mol
3 | SAGGSAGGSAGSMTLSTSTSTTPTSLTTTTTTTTYDPTTGTTTTTSTTTTTALPAAPPSSTASAGGSAGGSA [r18_16_JUSTAS] | 1.64 ± 0.03 kcal/mol | 1.37 ± 0.13 kcal/mol | 0.0685 ± 0.064 kcal/mol
4 | SAGGSAGGSAGSMTPAEEKAREVEERLRREHPEFERVFVRVKEFRPETGEVTIEVEVEPRSAGGSAGGSAGG [r11_617_JUSTAS] | -0.641 ± 0.27 kcal/mol | -0.0464 ± 0.12 kcal/mol | 0.292 ± 0.061 kcal/mol
5 | SAGGSAGGSAGSMTSISVDVPVPGKNVVTVTVTLPPNTTTVTITVEPLPNGELKVTVETSSAGGSAGGSAGG [r11_657_JUSTAS] | 2.5 ± 0.061 kcal/mol | 2.78 ± 0.1 kcal/mol | 2.89 ± 0.07 kcal/mol
6 | SAGGSAGGSAGSMTVTLTITDPRNSATTTYTVPSSNYEEFLKANPEIEKNGWTVTVDTNGSAGGSAGGSAGG [r17_176_JUSTAS] | 0.903 ± 0.15 kcal/mol | 1.05 ± 0.13 kcal/mol | 1.15 ± 0.044 kcal/mol
7 | SAGGSAGGSAGSPDRPRRVEPVPVVTYKDPDLGKEFTSPEEIEKTKEELEKKGLSVEVSASAGGSAGGSAGG [r17_289_JUSTAS] | 0.482 ± 0.1 kcal/mol | 0.289 ± 0.15 kcal/mol | -0.209 ± 0.13 kcal/mol
8 | SAGGSAGGSAGSPVVTTEKVKTEGNTTVYRVTEPALNTETLVTEDAGANPTIKTTTYNTPSAGGSAGGSAGG [r11_738_JUSTAS] | -0.937 ± 0.83 kcal/mol | -0.747 ± 0.24 kcal/mol | -0.955 ± 0.21 kcal/mol
9 | SAGGSAGGSAGSTVTLELEIDGVRITVKAELTPDGELRLTITEVEVLPPPPVVHPDDPEALKSAGGSAGGSA [r18_176_TrROS_Hall] | 1.1 ± 0.064 kcal/mol | 1.33 ± 0.11 kcal/mol | 1.54 ± 0.049 kcal/mol
10 | SAGGSAGGSAGSTVTLTVDPDTNVATLTAIIGGKPVTATLTFIPNTGKARLPDGTWIDISSAGGSAGGSAGG [r11_395_TrMRF] | 1.03 ± 0.051 kcal/mol | 1.28 ± 0.069 kcal/mol | 1.43 ± 0.034 kcal/mol
11 | SAGGSAGGSAGSVTVTFISLEEGERYLVLTELRFGDYGIESRSTRIEVSDEKLEELKKAFSAGGSAGGSAGG [r11_47_TrMRF] | 2.12 ± 0.036 kcal/mol | 2 ± 0.12 kcal/mol | 1.52 ± 0.072 kcal/mol
12 | SAGGSAGGSAGSVTVTLSSDPDKTFTVTLPGGETVTFQPTPTNQVTVTVTSPTTPVTVTVSSAGGSAGGSAG [r3_334_JUSTAS] | 0.636 ± 0.084 kcal/mol | 1.43 ± 0.096 kcal/mol | 1.96 ± 0.074 kcal/mol
13 | SAGGSAGGSAGSYTVTPITLKLPDGTEVDAVLTTDPAGNVTLTLTGDSPLSTLTFPASTLSAGGSAGGSAGG [r11_327_JUSTAS] | 1.6 ± 0.039 kcal/mol | 1.18 ± 0.049 kcal/mol | 0.119 ± 0.026 kcal/mol
14 | SAGGSAGGSAGTAEEIAKALEEAGFKVEKLPDGTLKVTVRNPETEETVEITLTLEEIEKLSAGGSAGGSAGG [r11_994_TrROS_Hall] | 2.22 ± 0.051 kcal/mol | 2.33 ± 0.1 kcal/mol | 2.38 ± 0.084 kcal/mol
15 | SAGGSAGGSAGTIRIKMKDGKPMEFPLKGLPKEDLDDPEFLDWIKDWARDSGMKIDDIEISAGGSAGGSAGG [r11_467_TrROS] | 1.09 ± 0.072 kcal/mol | 0.608 ± 0.14 kcal/mol | -0.62 ± 0.22 kcal/mol
16 | SAGGSAGGSAGTITTPTAEFTVTLDPNGTYTVTYQNTTTTVPVGAPFTLPGGEPLTVVPASAGGSAGGSAGG [r11_147_JUSTAS] | 0.931 ± 0.11 kcal/mol | 0.601 ± 0.13 kcal/mol | 0.0786 ± 0.069 kcal/mol
17 | SAGGSAGGSAGTMTAEEIAKALGAKVVEVYPDKVVIEIEVDGKKYRITINEDGEVTVEEVSAGGSAGGSAGG [r17_252_TrROS_Hall] | 4.47 ± 0.15 kcal/mol | 4.02 ± 0.21 kcal/mol | 2.62 ± 0.11 kcal/mol
18 | SAGGSAGGSAGVEINIFMPSWEQAKHRAKSIARELRERGLPPNAEIKIKIHPIDPEDMGPSAGGSAGGSAGG [r17_180_TrROS] | -0.576 ± 0.15 kcal/mol | -0.226 ± 0.25 kcal/mol | -0.0827 ± 0.13 kcal/mol
19 | SAGGSAGGSAGVKSVGPIIYPNGEVFGDVKAEEETLPNGKKKLKIYATFSDGSKYEFTLDSAGGSAGGSAGG [r11_810_TrMRF] | 0.728 ± 0.13 kcal/mol | 0.325 ± 0.26 kcal/mol | -0.261 ± 0.34 kcal/mol
20 | SAGGSAGGSAGVKVLKNPGDSLVTVVTETTVTKTTTDPEGNTTTTPVKVTTTTLLEVPLTSAGGSAGGSAGG [r17_103_JUSTAS] | 0.215 ± 0.056 kcal/mol | 0.279 ± 0.071 kcal/mol | 0.205 ± 0.033 kcal/mol
21 | SAGGSAGGSAGVPVVVRTVTGPEGGYVVVEFPNLKKVVLLPFTDGKPRPVVFDTDEVLKLVSAGGSAGGSAG [r3_426_TrMRF] | 0.722 ± 0.083 kcal/mol | 0.825 ± 0.093 kcal/mol | 1.04 ± 0.04 kcal/mol
22 | SAGGSAGGSAGVRDPDNGEPMPPGDWVIRHRDNEKPHHFLIPPNNAEEFAEDNGIEIHKVSAGGSAGGSAGG [r17_109_TrROS] | 1.24 ± 0.14 kcal/mol | 1.32 ± 0.35 kcal/mol | 1.42 ± 0.23 kcal/mol
23 | SAGGSAGGSAGVVLKEPKGGVPKTITEDPNHPGLYTTGSPDGTISTRPLEIKPEEEPVLLSAGGSAGGSAGG [r17_85_JUSTAS] | -0.542 ± 0.4 kcal/mol | -0.739 ± 0.55 kcal/mol | -1.01 ± 0.49 kcal/mol
24 | SAGGSAGGSAGVVVKKPGTDVVYEITEEPGSYKVTITDPKTGTTKEFTVSPEVSIESLLLSAGGSAGGSAGG [r11_772_JUSTAS] | 0.757 ± 0.13 kcal/mol | 1.15 ± 0.14 kcal/mol | 1.22 ± 0.092 kcal/mol
25 | SAGGSAGGSAGWGWISVSITFEMEHYDEDGKPKHEHPMPMTIQIPVVRVDPKNGKLEPMPSAGGSAGGSAGG [r17_413_TrROS] | 2.58 ± 0.065 kcal/mol | 2.24 ± 0.2 kcal/mol | 1.83 ± 0.095 kcal/mol
26 | SAGGSAGGSAGYTVSVSVETETLKYLDPETGELVEEETLVRVTITITPPPPAPPNLPENLSAGGSAGGSAGG [r17_493_TrROS_Hall] | 2.76 ± 0.051 kcal/mol | 2.65 ± 0.23 kcal/mol | 2.37 ± 0.23 kcal/mol
